Results on 20 molecules are retold here after patent US20250084188A1 (CHUNGBUK NATIONAL UNIVERSITY INDUSTRY ACADEMIC COOPERATION …, published 2025).

For assay [1], the target named is T1, human chitinase-3-like protein 1 (hCHI3L1) (human, UniProt P36222 22-383).
T1 construct: Antigen used for phage display panning and ELISA; also called YKL-40; CHI3L1 antigen protein
Description: monoclonal phage ELISA, phage-displayed Fab on CHI3L1. For orientation: In an ELISA, binding on a coated surface is turned into a signal by an enzyme label.

The target in assay [2] is T1, human chitinase-3-like protein 1 …. Description: ELISA, purified IgG on CHI3L1 antigen protein.

T1 sequence (P36222 22-383 limits assumed): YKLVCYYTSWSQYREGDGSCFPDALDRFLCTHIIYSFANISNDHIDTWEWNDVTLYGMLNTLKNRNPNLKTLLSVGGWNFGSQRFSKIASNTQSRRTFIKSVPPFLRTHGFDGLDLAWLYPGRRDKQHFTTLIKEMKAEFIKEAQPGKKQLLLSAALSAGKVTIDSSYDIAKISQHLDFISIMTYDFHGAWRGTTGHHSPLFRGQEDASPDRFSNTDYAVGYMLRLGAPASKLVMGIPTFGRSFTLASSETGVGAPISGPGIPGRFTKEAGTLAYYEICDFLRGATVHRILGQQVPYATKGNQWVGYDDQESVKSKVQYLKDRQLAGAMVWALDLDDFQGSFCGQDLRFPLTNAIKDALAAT

B1: D2 Fab clone (phage-displayed) (Fab, V domains shown)
VH: EVQLVESGGGLVQPGGSLRLSCAASGFTFSSYAMHWVRQAPGKGLEWVSAISSSSGTIYYADSVKGRFTISRDNSKNTLYLQMNSLRAEDTAVYYCAKDFGAVFDYWGQGTLVTVSS
VL: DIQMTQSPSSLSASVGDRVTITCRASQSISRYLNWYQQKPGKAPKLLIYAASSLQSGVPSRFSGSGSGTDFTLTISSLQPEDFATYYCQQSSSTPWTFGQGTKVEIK
Take B1: in assay [1], the binding result is reported as “binds”.

B2: D2 (IgG) (antibody, V domains shown)
VH: EVQLVESGGGLVQPGGSLRLSCAASGFTFSSYAMHWVRQAPGKGLEWVSAISSSSGTIYYADSVKGRFTISRDNSKNTLYLQMNSLRAEDTAVYYCAKDFGAVFDYWGQGTLVTVSS
VL: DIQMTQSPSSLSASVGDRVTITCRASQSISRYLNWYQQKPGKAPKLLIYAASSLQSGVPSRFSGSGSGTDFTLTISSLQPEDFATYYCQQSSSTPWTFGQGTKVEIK
notes: Converted into the IgG form of human antibodies, expressed in ExpiCHO-S
As to B2, the binding result in assay [2] is “binds”.

B3: F4 (IgG) (antibody, V domains shown)
VH: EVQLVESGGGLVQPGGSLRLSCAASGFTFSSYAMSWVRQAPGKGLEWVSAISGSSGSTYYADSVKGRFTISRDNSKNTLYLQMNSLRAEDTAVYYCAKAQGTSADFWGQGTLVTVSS
VL: DIQMTQSPSSLSASVGDRVTITCRASQSISRWLNWYQQKPGKAPKLLIYAASRLQSGVPSRFSGSGSGTDFTLTISSLQPEDFATYYCQQSYSTPWTFGQGTKVEIK
notes: as for B2
With B3, the binding result in assay [2] was “binds”.

B4: F2 Fab clone (phage-displayed) (Fab, V domains shown)
VH: EVQLVESGGGLAQPGGSLRLSCAASGFTFSSYAMHWVRQAPGKGLEWVSSIKSSGGSKNYADSVKGRFTISRDNSKNTLYLQMNSLRAEDTAVYYCAKGYGASFDFWGQGTLVTVSS
VL: DIQMTQSPSSLSASVGDRVTITCRASQDISSWLNWYQQKPGKAPKLLIYAASRLQSGVPSRFSGSGSGTDFTLTISSLQPEDFATYYCQQAYSFPWTFGQGTKVEIK
In the case of B4, in assay [1], the binding result is on record as “binds”.

B5: C5 Fab clone (phage-displayed) (Fab, V domains shown)
VH: EVQLVESGGGLVQPGGSLRLSCAASGFTFSSYAMSWVRQAPGKGLEWVSSISSSSGTTHYADSVKGRFTISRDNSKNTLYLQMNSLRAEDTAVYYCAKGGAFDYWGQGTLVTVSS
VL: DIQMTQSPSSLSASVGDRVTITCRASQDISRWLNWYQQKPGKAPKLLIYAASTLQSGVPSRFSGSGSGTDFTLTISSLQPEDFATYYCQQSYSFPLTFGQGTKVEIK
In the case of B5, in assay [1], the binding result is “binds”.

B6: E7 Fab clone (phage-displayed) (Fab, V domains shown)
VH: EVQLVESGGGLVQPGGSLRLSCAASGFTFSSYAMHWVRQAPGKGLEWVSAISSSGGSIYYADSVKGRFTISRDNSKNTLYLQMNSLRAEDTAVYYCAKQGLSFDIWGQGTLVTVSS
VL: DIQMTQSPSSLSASVGDRVTITCRASQSISNWLNWYQQKPGKAPKLLIYATSRLQSGVPSRFSGSGSGTDFTLTISSLQPEDFATYYCQQSYSFPYTFGQGTKVEIK
On to B6, for which the binding result in assay [1] is recorded as “binds”.

B7: E7 (IgG) (antibody, V domains shown)
VH: EVQLVESGGGLVQPGGSLRLSCAASGFTFSSYAMHWVRQAPGKGLEWVSAISSSGGSIYYADSVKGRFTISRDNSKNTLYLQMNSLRAEDTAVYYCAKQGLSFDIWGQGTLVTVSS
VL: DIQMTQSPSSLSASVGDRVTITCRASQSISNWLNWYQQKPGKAPKLLIYATSRLQSGVPSRFSGSGSGTDFTLTISSLQPEDFATYYCQQSYSFPYTFGQGTKVEIK
notes: as for B2
In the case of B7, the binding result in assay [2] is on record as “binds”.

B8: A7 Fab clone (phage-displayed) (Fab, V domains shown)
VH: EVQLVESGGGLVQPGGSLRLSCAASGFTFSDYAMSWVRQAPGKGLEWVSGISSSGGTIYYADSVKGRFTISRDNSKNTLYLQMNSLRAEDTAVYYCAKAIGSWADIWGQGTLVTVSS
VL: DIQMTQSPSSLSASVGDRVTITCRASQDISNYLNWYQQKPGKAPKLLIYAASSLQSGVPSRFSGSGSGTDFTLTISSLQPEDFATYYCQQSYSFPYTFGQGTKVEIK
As to B8, the binding result in assay [1] is recorded as “binds”.

B9: F2 (IgG) (antibody, V domains shown)
VH: EVQLVESGGGLAQPGGSLRLSCAASGFTFSSYAMHWVRQAPGKGLEWVSSIKSSGGSKNYADSVKGRFTISRDNSKNTLYLQMNSLRAEDTAVYYCAKGYGASFDFWGQGTLVTVSS
VL: DIQMTQSPSSLSASVGDRVTITCRASQDISSWLNWYQQKPGKAPKLLIYAASRLQSGVPSRFSGSGSGTDFTLTISSLQPEDFATYYCQQAYSFPWTFGQGTKVEIK
notes: as for B2
Regarding B9, the binding result in assay [2] is listed as “binds”.

B10: C5 (IgG) (antibody, V domains shown)
VH: EVQLVESGGGLVQPGGSLRLSCAASGFTFSSYAMSWVRQAPGKGLEWVSSISSSSGTTHYADSVKGRFTISRDNSKNTLYLQMNSLRAEDTAVYYCAKGGAFDYWGQGTLVTVSS
VL: DIQMTQSPSSLSASVGDRVTITCRASQDISRWLNWYQQKPGKAPKLLIYAASTLQSGVPSRFSGSGSGTDFTLTISSLQPEDFATYYCQQSYSFPLTFGQGTKVEIK
notes: as for B2
Turning to B10, the binding result in assay [2] is listed as “binds”.

B11: F4 Fab clone (phage-displayed) (Fab, V domains shown)
VH: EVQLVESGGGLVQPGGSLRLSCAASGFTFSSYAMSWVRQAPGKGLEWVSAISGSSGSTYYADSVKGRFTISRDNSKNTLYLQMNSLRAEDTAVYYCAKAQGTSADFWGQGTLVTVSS
VL: DIQMTQSPSSLSASVGDRVTITCRASQSISRWLNWYQQKPGKAPKLLIYAASRLQSGVPSRFSGSGSGTDFTLTISSLQPEDFATYYCQQSYSTPWTFGQGTKVEIK
Take B11: the binding result in assay [1] was “binds”.

B12: 1E12 (IgG) (antibody, V domains shown)
VH: EVQLVESGGGLVQPGGSLRLSCAASGFTFSSYAMHWVRQAPGKGLEWVSAISSSGGTKYYADSVKGRFTISRDNSKNTLYLQMNSLRAEDTAVYYCAKGLQGGAGAFDIWGQGTLVTVSS
VL: DIQMTQSPSSLSASVGDRVTITCRASQSISNYLNWYQQKPGKAPKLLIYATSTLHSGVPSRFSGSGSGTDFTLTISSLQPEDFATYYCQQSYSFPWTFGQGTKVEIK
notes: as for B2
As for B12, the binding result in assay [2] is “binds”.

B13: 1E12 Fab clone (phage-displayed) (Fab, V domains shown)
VH: EVQLVESGGGLVQPGGSLRLSCAASGFTFSSYAMHWVRQAPGKGLEWVSAISSSGGTKYYADSVKGRFTISRDNSKNTLYLQMNSLRAEDTAVYYCAKGLQGGAGAFDIWGQGTLVTVSS
VL: DIQMTQSPSSLSASVGDRVTITCRASQSISNYLNWYQQKPGKAPKLLIYATSTLHSGVPSRFSGSGSGTDFTLTISSLQPEDFATYYCQQSYSFPWTFGQGTKVEIK
For the molecule B13, in assay [1], the binding result is given as “binds”.

B14: A7 (IgG) (antibody, V domains shown)
VH: EVQLVESGGGLVQPGGSLRLSCAASGFTFSDYAMSWVRQAPGKGLEWVSGISSSGGTIYYADSVKGRFTISRDNSKNTLYLQMNSLRAEDTAVYYCAKAIGSWADIWGQGTLVTVSS
VL: DIQMTQSPSSLSASVGDRVTITCRASQDISNYLNWYQQKPGKAPKLLIYAASSLQSGVPSRFSGSGSGTDFTLTISSLQPEDFATYYCQQSYSFPYTFGQGTKVEIK
notes: as for B2
Turning to B14, the binding result in assay [2] is “binds”.

B15: H7 (IgG) (antibody, V domains shown)
VH: EVQLVESGGGLVQPGGSLRLSCAASGFTFSSYGMHWVRQAPGKGLEWVSGISSSGGSKYYADSVKGRFTISRDNSKNTLYLQMNSLRAEDTAVYYCAKHGHQQMDFWGQGTLVTVSS
VL: DIQMTQSPSSLSASVGDRVTITCRASQSISSWLNWYQQKPGKAPKLLIYAASRLQSGVPSRFSGSGSGTDFTLTISSLQPEDFATYYCQQTYSFPWTFGQGTKVEIK
notes: as for B2
Consider B15, for which, in assay [2], the binding result is reported as “binds”.

B16: H7 Fab clone (phage-displayed) (Fab, V domains shown)
VH: EVQLVESGGGLVQPGGSLRLSCAASGFTFSSYGMHWVRQAPGKGLEWVSGISSSGGSKYYADSVKGRFTISRDNSKNTLYLQMNSLRAEDTAVYYCAKHGHQQMDFWGQGTLVTVSS
VL: DIQMTQSPSSLSASVGDRVTITCRASQSISSWLNWYQQKPGKAPKLLIYAASRLQSGVPSRFSGSGSGTDFTLTISSLQPEDFATYYCQQTYSFPWTFGQGTKVEIK
On to B16, for which, in assay [1], the binding result is listed as “binds”.

B17: H1 (IgG) (antibody, V domains shown)
VH: EVQLVESGGGLVQPGGSLRLSCAASGFTFSSYAMSWVRQAPGKGLEWVSAIRSSGGTTYYADSVKGRFTISRDNSKNTLYLQMNSLRAEDTAVYYCAKSQSTVADYWGQGTLVTVSS
VL: DIQMTQSPSSLSASVGDRVTITCRASQSISNWLNWYQQKPGKAPKLLIYATSRLQSGVPSRFSGSGSGTDFTLTISSLQPEDFATYYCQQSYSFPLTFGQGTKVEIK
notes: as for B2
B17: the binding result in assay [2] is recorded as “binds”.

B18: A5 Fab clone (phage-displayed) (Fab, V domains shown)
VH: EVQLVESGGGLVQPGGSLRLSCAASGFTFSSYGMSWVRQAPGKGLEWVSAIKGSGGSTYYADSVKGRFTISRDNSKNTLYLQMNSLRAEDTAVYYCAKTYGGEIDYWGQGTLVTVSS
VL: DIQMTQSPSSLSASVGDRVTITCRASQSISRWLNWYQQKPGKAPKLLIYATSTLQSGVPSRFSGSGSGTDFTLTISSLQPEDFATYYCQQSYSFPWTFGQGTKVEIK
As to B18, the binding result in assay [1] is given as “binds”.

B19: H1 Fab clone (phage-displayed) (Fab, V domains shown)
VH: EVQLVESGGGLVQPGGSLRLSCAASGFTFSSYAMSWVRQAPGKGLEWVSAIRSSGGTTYYADSVKGRFTISRDNSKNTLYLQMNSLRAEDTAVYYCAKSQSTVADYWGQGTLVTVSS
VL: DIQMTQSPSSLSASVGDRVTITCRASQSISNWLNWYQQKPGKAPKLLIYATSRLQSGVPSRFSGSGSGTDFTLTISSLQPEDFATYYCQQSYSFPLTFGQGTKVEIK
B19: the binding result in assay [1] was “binds”.

B20: A5 (IgG) (antibody, V domains shown)
VH: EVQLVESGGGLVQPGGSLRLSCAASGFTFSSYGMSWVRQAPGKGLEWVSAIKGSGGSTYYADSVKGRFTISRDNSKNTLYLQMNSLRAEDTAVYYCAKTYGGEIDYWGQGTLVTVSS
VL: DIQMTQSPSSLSASVGDRVTITCRASQSISRWLNWYQQKPGKAPKLLIYATSTLQSGVPSRFSGSGSGTDFTLTISSLQPEDFATYYCQQSYSFPWTFGQGTKVEIK
notes: as for B2
Regarding B20, in assay [2], the binding result was “binds”.
